Measurements from patent US11994512B2, “Single-cell genomic methods to generate ex vivo cell systems that recapitulate in vivo biology with improved fidelity” (Massachusetts Institute of Technology, priority 2018, dated 2024).

B1: Q9DCT8 (protein, UniProt Q9DCT8 1-208, looked up)
chain: MASKCPKCDKTVYFAEKVSSLGKDWHKFCLKCERCNKTLTPGGHAEHDGKPFCHKPCYATLFGPKGVNIGGAGSYIYEKPQTEAPQVTGPIEVPVVRTEERKTSGPPKGPSKASSVTTFTGEPNMCPRCNKRVYFAEKVTSLGKDWHRPCLRCERCSKTLTPGGHAEHDGQPYCHKPCYGILFGPKGVNTGAVGSYIYDKDPEGTVQP
modifications: full-length
B2: Q9D8W7 (protein, UniProt Q9D8W7 1-154, looked up)
chain: MASVSTHGNQEKSPHLPPLSKQSLLFCPKSKLHIHRGEIAKIIRECQEESFWKRALPFSLISMLVTQGLVHQGYLAANPRFGSLPKVALAGLLGFGLGKASYIRVCQSKFHSFEDQLRGAGFGPEHNRHCLLTCEDCKTRRGLSEKAGSQPSAS
modifications: full-length
B3: Q9D9Z1 (protein, UniProt Q9D9Z1 1-312, looked up)
chain: MAAPEAEAQETAFRTTGPPTDSEPRPFPPSSRKFPFESAAADSNEDWAVAAEHYLKGSGENGGWEQPAPGVQPSHPATMASAKTVCDAQPHSMPSCGLPADTQTRATSKLPVKSKEADLLRHLHPGGPEPDVTKVTKSRRENGQVKAAETASRRNLRNSYKPFNKQKPEEELKDKNELLEAVNKQLHQKLTETQGELKDLTQKVELLEKFQDNCLALLESKGLNPGQETLASKQEPTTDHTDSMLLLETLKDELKVFNETAKKQMEELQALKVKLKLKEEESVQFLEQQTLCKDEASDFTIILEEMEQLLEM
modifications: full-length
B4: Q9DA97 (protein, UniProt Q9DA97 1-430, looked up)
chain: MAEKPTNTSVPIPGSEDPQKENIRCLSTLGHFGFECLPTQLVNKSIQKGFSFNILCVGETGIGKTTLINTLFNTNLKETKSSHFYSKVGLTVKTYELLERNIPLRLTVVKTVGYGDQINKEASYQPVVDYLDAQFEAYLQEELKIKRSLADYHDSRIHVCLYFITPTGHSLKSLDLLTMKSIDRRVNIIPLIAKADSLSKNDLQRFKNNIMSELNSNGIQIYQFQVDDEASAQVNSSGLLPFAVVGSMEEVKVGKRMVRGRHYPWGVLQEVENENHCDFVKLRDLLLSTNMEDLKDQTHTQHYECYRSNRLQKLGFSDTGPDNRPVSFQEMYEAKRREFHNQCQKEEEELKQTFMQRVKEKELTFKDAEKELQDKFEHLKRIQQEEILKLEEERRKLEEQIIDFYKMKAASESAQAQVCTNIKKDKDRKK
modifications: full-length
B5: Q9DD24 (protein, UniProt Q9DD24 1-104, looked up)
chain: MKPCQKMEGNLEKEDEPKPEEEPKPEEKPEEGQEPEEEEKSEETFRERLIRSLQDFQEDIHNRHLSSDDLFRDVEELDEIRKVRNKLIVTRWKANRSHPYPYLM
modifications: full-length
B6: Q9DBG7 (protein, UniProt Q9DBG7 1-636, looked up)
chain: MLDFFTIFSKGGLVLWCFQGVSDSCTGPVNALIRSVLLQERGGNNSFTHEALTLKYKLDNQFELVFVVGFQKILTLTYVDKLIDDVHRLFRDKYRTEIQQQSALSLLNGTFDFQNDFLRLLREAEESSKIRAPTTMKKFEDSEKAKKPVRSMIETRGEKTKEKAKNNKKRGAKKEGSDGTLATSKTAPAEKSGLSAGPENGELSKEELIRRKREEFIQKHGKGLDKSSKSTKSDTPKEKGKKAPRVWELGGCANKEVLDYSTPTTNGTPEAALSEDINLIRGTGPGGQLQDLDCSSSDDEGATQNTKPSATKGTLGGMFGMLKGLVGSKSLSREDMESVLDKMRDHLIAKNVAADIAVQLCESVANKLEGKVMGTFSTVTSTVKQALQESLVQILQPQRRVDMLRDIMDAQRRQRPYVVTFCGVNGVGKSTNLAKISFWLLENGFSVLIAACDTFRAGAVEQLRTHTRRLTALHPPEKHGGRTMVQLFEKGYGKDAAGIAMEAIAFARNQGFDVVLVDTAGRMQDNAPLMTALAKLITVNTPDLVLFVGEALVGNEAVDQLVKFNRALADHSMAQTPRLIDGIVLTKFDTIDDKVGAAISMTYITSKPIVFVGTGQTYCDLRSLNAKAVVAALMKA
modifications: full-length
B7: Q9EPC5 (protein, UniProt Q9EPC5 1-134, looked up)
chain: MPADLSGTWNLLSSDNFEGYMLALGIDFATRKIAKLLKPQKVIEQNGDSFTIQTCSSLRNYLVKFKVGEEFEEDNKGLDNRKCTSLVTWENDKLTCVQRGEKKNRGWSHWIEGDQLHLEMFCEGQVCKQTFQRA
modifications: full-length
B8: Q9D816 (protein, UniProt Q9D816 1-490, looked up)
chain: MDPVLVLVLTLSCLLLLSLWRQNSGRGKLPPGPTPFPIIGNILQIDIKNISKSFNYFSKVYGPVFTLYFGSKPTVVVHGYEAVKEALDDLGEEFSGRGSFQIFERINNDLGVIFSNGTKWKELRRFSIMTLRSFGMGKRSIEDRIQEEASCLVEELRKANGSLCDPTFILSCAPSNVICSVIFHNRFDYKDEKFLNLMERLNENFKILNSPWMQVYNALPTLINYLPGSHNKVIKNFTEIKSYILGRVKEHQETLDMDNPRDFIDCFLIKMEQEKHNPHSEFTIESLMATVTDIFVAGTETTNITLRYGLLLLLKHTEVTAKVQAEIDHVIGRHRSPCMQDRTRMPYTDAMVHEIQRYIDLIPNNVPHAATCNVRFRSYFIPKGTELVTSLTSVLHDDKEFPNPEVFDPGHFLDENGNFKKSDYFMPFSIGKRMCVGEALARTELFLILTTILQNFNLKSLVDTKDIDTTPVANTFGRVPPSYQLYFIPR
modifications: full-length

Test system: intracellular proteome of ENR+CD and ENR organoids
Test: LC-MS/MS TMT proteomics of ENR+CD versus ENR organoids
Format: cell-based, C57BL/6 mice
Settings: for Average logFC: ENR+CD versus ENR organoids, sample pairs in aggregate (n=4, 2 technical replicates from two biological donors); for M1-1 Log2 Median Normalized / M1-2 Log2 Median Normalized / M2-1 Log2 Median Normalized / M2-2 Log2 Median Normalized: protein abundance ratio ENR+CD versus ENR organoids, LC-MS/MS TMT proteomics; for M1-1 Log2 Median Normalized: sample pair M1-1; for M1-2 Log2 Median Normalized: sample pair M1-2; for M2-1 Log2 Median Normalized: sample pair M2-1; for M2-2 Log2 Median Normalized: sample pair M2-2; for change: up = enriched in ENR+CD, down = enriched in ENR, FDR<0.05 and log fold change cut-off

Row | Molecule | Average logFC | M1-1 Log2 Median Normalized | M1-2 Log2 Median Normalized | M2-1 Log2 Median Normalized | M2-2 Log2 Median Normalized | change
1 | B1 | 1.386 | 1.983 | 1.517 | 0.9975 | 1.047 | up
2 | B2 | −1.397 | −0.573 | −1.182 | −1.9045 | −1.927 | down
3 | B3 | −1.13 | −1.473 | −0.579 | −0.8635 | −1.605 | down
4 | B4 | −1.147 | −0.99 | −1.148 | −0.7465 | −2.635 | down
5 | B5 | 1.262 | 1.266 | 0.97 | 1.6605 | 1.153 | up
6 | B6 | 1.192 | 1.346 | 1.118 | 0.9025 | 1.401 | up
7 | B7 | −2.14 | −2.063 | −2.064 | −2.2365 | −2.196 | down
8 | B8 | 1.132 | 0.664 | 1.318 | 0.5735 | 1.971 | up
